Test results published in patent US20250043302A1, “MUTATED HYDROXYPHENYLPYRUVATE DIOXYGENASE POLYPEPTIDE, AND CODING GENE AND USE THEREOF” (BEIJING DABEINONG BIOTECHNOLOGY CO., LTD., priority 2021, published 2025).

How the values were obtained:
[1] = tested on: Arabidopsis thaliana T1 plants; assay: Isoxaflutole tolerance of transgenic Arabidopsis thaliana T1 plants (spray, bleached leaf area grade, damage score); type: in vivo; conditions: for Classification and statistics of the grade of pesticide damage Grade 0 / Classification and statistics of the grade of pesticide damage Grade 1 / Classification and statistics of the grade of pesticide damage Grade 2 / Classification and statistics of the grade of pesticide damage Grade 3: number of plants in grade;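 on Scores: Weighted damage index from 0 to 100 where higher means more damage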
How it was run: (§1)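 Damage graded 0–3 from the proportion of bleached leaf area 7 days after spraying. Plants were glufosinate-selected T1 lines, 18 days after sowing, plus vector and wild-type controls. Rates: mesotrione 52.5–420, isoxaflutole 35–280, topramezone 25–200 g ai/ha, with water (0×).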

[2] = tested on: Arabidopsis thaliana T1 plants; assay: Mesotrione tolerance of transgenic Arabidopsis thaliana T1 plants (spray, bleached leaf area grade, damage score); type: in vivo; set-up: Scores: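 damage score 0-100 computed as Σ(N×S)/(T×M)×100 over grades 0-3 with higher meaning more damage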; conditions: for Classification and statistics of the grade of pesticide damage Grade 0 / Classification and statistics of the grade of pesticide damage Grade 1 / Classification and statistics of the grade of pesticide damage Grade 2 / Classification and statistics of the grade of pesticide damage Grade 3: number of plants in grade
How it was run: as §1

B1: AsHPPDm-F372A-F415W-02: nucleotide sequence encoding Avena sativa HPPD with F372A+F415W; vector DBN11792 (nucleic acid)
DNA: ATGCCACCTACTCCAGCTACAGCTACTGGTGCTGCTGCTGCTGCCGTTACTCCTGAGCACGCTGCCAGGTCATTCCCCAGGGTGGTTCGCGTGAACCCCAGATCTGATAGGTTCCCAGTTCTGAGCTTCCACCATGTTGAGCTGTGGTGCGCTGATGCTGCTTCTGCTGCTGGCAGGTTCTCTTTCGCTCTTGGTGCTCCACTCGCTGCTAGATCTGATCTGTCTACAGGAAATAGCGCTCATGCCTCACTCCTGCTTCGCTCAGGTGCTTTGGCCTTCCTCTTCACCGCTCCATATGCTCCCCCACCTCAGGAGGCTGCTACTGCTGCTGCTACAGCCTCCATTCCAAGCTTCTCAGCTGATGCCGCTAGAACCTTCGCTGCTGCTCATGGACTTGCCGTGAGGTCTGTTGGTGTTCGCGTGGCTGATGCTGCTGAGGCTTTCAGAGTTTCCGTTGCCGGCGGAGCTAGGCCAGCTTTCGCTCCTGCTGATTTGGGACATGGTTTCGGCCTGGCTGAGGTTGAGCTTTACGGTGACGTGGTTCTCCGCTTCGTGTCTTACCCAGATGAGACTGACCTGCCTTTCCTTCCCGGCTTCGAGAGAGTTTCCTCTCCTGGTGCCGTGGATTACGGCCTGACAAGGTTCGACCACGTGGTTGGAAACGTTCCCGAGATGGCTCCAGTGATCGATTACATGAAGGGCTTCCTTGGATTCCATGAGTTCGCCGAGTTCACTGCTGAGGACGTGGGAACCACTGAGTCCGGTTTGAACTCTGTGGTTCTCGCCAACAATTCTGAGGCTGTTTTGCTCCCTCTGAATGAGCCTGTGCATGGAACCAAGAGGAGAAGCCAGATTCAAACTTACCTGGAGTACCACGGTGGCCCTGGAGTTCAGCATATCGCCCTTGCTTCTAATGATGTGTTGCGCACACTCAGAGAGATGCGCGCCAGAACCCCCATGGGAGGTTTCGAGTTCATGGCCCCACCACAGGCTAAGTACTACGAGGGCGTTAGAAGGATTGCTGGAGACGTGTTGAGCGAGGAGCAGATCAAGGAGTGCCAAGAGCTGGGTGTTCTTGTGGATAGGGATGACCAGGGCGTTCTGCTTCAAATTGCCACTAAGCCAGTGGGCGACCGCCCTACATTCTTCCTTGAGATGATTCAAAGAATCGGCTGCATGGAGAAGGATGAGGTTGGACAGGAGTACCAAAAGGGCGGATGCGGTGGCTTCGGAAAGGGTAACTGGAGCGAGTTGTTCAAGTCAATCGAGGACTACGAGAAGAGCCTCGAGGTGAAGCAGTCAGTGGTTGCCCAAAAGTCCTGA
modifications: AsHPPDm-F372A-F415W-02 Nucleotide Sequence
notes: vector DBN11792
Resistance evaluation ([1]; isoxaflutole 140 g ai/ha): Moderately | Scores ([1]; isoxaflutole 140 g ai/ha): 31 | Classification and statistics of the grade of pesticide damage Grade 0 ([1]; isoxaflutole 140 g ai/ha): 5 | Classification and statistics of the grade of pesticide damage Grade 1 ([1]; isoxaflutole 140 g ai/ha): 7 | Classification and statistics of the grade of pesticide damage Grade 2 ([1]; isoxaflutole 140 g ai/ha): 4 | Classification and statistics of the grade of pesticide damage Grade 3 ([1]; isoxaflutole 140 g ai/ha): 0 | Resistance evaluation ([1]; isoxaflutole 280 g ai/ha): Poorly | Scores ([1]; isoxaflutole 280 g ai/ha): 63 | Classification and statistics of the grade of pesticide damage Grade 0 ([1]; isoxaflutole 280 g ai/ha): 0 | Classification and statistics of the grade of pesticide damage Grade 1 ([1]; isoxaflutole 280 g ai/ha): 3 | Classification and statistics of the grade of pesticide damage Grade 2 ([1]; isoxaflutole 280 g ai/ha): 12 | Classification and statistics of the grade of pesticide damage Grade 3 ([1]; isoxaflutole 280 g ai/ha): 1 | Resistance evaluation ([2]; mesotrione 210 g ai/ha): Moderately | Scores ([2]; mesotrione 210 g ai/ha): 31 | Classification and statistics of the grade of pesticide damage Grade 0 ([2]; mesotrione 210 g ai/ha): 6 | Classification and statistics of the grade of pesticide damage Grade 1 ([2]; mesotrione 210 g ai/ha): 6 | Classification and statistics of the grade of pesticide damage Grade 2 ([2]; mesotrione 210 g ai/ha): 3 | Classification and statistics of the grade of pesticide damage Grade 3 ([2]; mesotrione 210 g ai/ha): 1 | Resistance evaluation ([2]; mesotrione 420 g ai/ha): Poorly resistant | Scores ([2]; mesotrione 420 g ai/ha): 50 | Classification and statistics of the grade of pesticide damage Grade 0 ([2]; mesotrione 420 g ai/ha): 0 | Classification and statistics of the grade of pesticide damage Grade 1 ([2]; mesotrione 420 g ai/ha): 8 | Classification and statistics of the grade of pesticide damage Grade 2 ([2]; mesotrione 420 g ai/ha): 8 | Classification and statistics of the grade of pesticide damage Grade 3 ([2]; mesotrione 420 g ai/ha): 0
